Paper PMC3649978

Molecular target: EB1 (competitive binding assay, source not named) (UniProt Q61166)
Experiment: competitive binding assay; data not shown; p104_(554–593) as competitor of EB1 binding to recombinant p104

UniProt Q61166, sequence (Q61166 whole entry): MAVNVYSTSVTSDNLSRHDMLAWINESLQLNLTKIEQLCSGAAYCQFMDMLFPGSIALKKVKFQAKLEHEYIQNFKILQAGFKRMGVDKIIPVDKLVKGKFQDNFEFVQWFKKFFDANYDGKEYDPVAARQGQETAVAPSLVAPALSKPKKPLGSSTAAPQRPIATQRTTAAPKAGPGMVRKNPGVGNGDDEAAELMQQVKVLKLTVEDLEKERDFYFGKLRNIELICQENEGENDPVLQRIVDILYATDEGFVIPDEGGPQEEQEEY

Substance: p104_(554–593) (soluble 40 aa fragment of p104; recombinant form GFP-p104_(554–593)) (domain or fragment)
- molar excess for 50% inhibition (fold molar excess): 3
